Results published in patent US20120148607A1 (ARGEN X N V, published 2012).
One block for each binder: values may come before it.

Tests used:
[1] = biological target: T1, Decoy c-Met (extracellular domain of human c-Met) (human, UniProt P08581 25-932); assay: ELISA: c-Met ectodomain coated at 1 µg/ml on maxisorb plate; mAb in three-fold dilutions from 1 µg/ml, 1 h RT; HRP-conjugated Protein A, TMB, OD 450
T1 construct: extracellular domain; also called Decoy Met; monomeric Decoy Met

[2] = biological target: T2, human c-Met ECD (aa 25-932) with His tag (human, UniProt P08581 25-932); assay: ELISA: 200 ng of the c-Met ECD protein coated on maxisorb plates; mAb dilutions 1 h RT; HRP-conjugated goat anti-human antibody, TMB, OD 620 nm
T2 construct: range 25-932; Soluble protein from HEK293 cells; also called human c-Met (WT); not shown: His tag

[3] = biological target: T3, human/llama-IPT chimeric c-Met ECD (human; Llama glama, UniProt P08581 25-567); assay: as above
T3 construct: range 25-567;range 568-932; Human c-Met in which IPT1-4 is exchanged for the llama IPT1-4; also called human/llama IPT1-4; construct with the human SEMA-PSI; not shown: His tag

[4] = biological target: T4, LP7* (aa523-909) llama-human c-Met chimera (human; Llama glama, UniProt P08581 25-546); assay: ELISA, 36C4 (2 µg/ml) immobilised, chimera added, streptavidin-HRP
T4 construct: range 1-522 (mature numbering, E=1; derived);range 523-909 (mature numbering, E=1); not explained further; not shown: Flag and strep tag
Source text: (§1) An ELISA was run to investigate the binding of the mAbs to the different chimeras.

[5] = biological target: T5, LP6 (aa497-909) llama-human c-Met chimera (human; Llama glama, UniProt P08581 25-520); assay: as above
T5 construct: range 1-496 (mature numbering, E=1; derived);range 497-909 (mature numbering, E=1); not shown: Flag and strep tag
Source text: as §1

[6] = biological target: T6, LI8 (aa540-909) llama-human c-Met chimera (human; Llama glama, UniProt P08581 25-563); assay: as above
T6 construct: range 1-539 (mature numbering, E=1; derived);range 540-909 (mature numbering, E=1); also called Ll8; not shown: Flag and strep tag
Source text: as §1

[7] = biological target: T7, LI11 (aa634-909) llama-human c-Met chimera (human; Llama glama, UniProt P08581 25-657); assay: as above
T7 construct: range 1-633 (mature numbering, E=1; derived);range 634-909 (mature numbering, E=1); also called Ll11; not shown: Flag and strep tag
Source text: as §1

[8] = biological target: T8, LI9 (aa572-909) llama-human c-Met chimera (human; Llama glama, UniProt P08581 25-595); assay: as above
T8 construct: range 1-571 (mature numbering, E=1; derived);range 572-909 (mature numbering, E=1); also called Ll9; not shown: Flag and strep tag
Source text: as §1

[9] = biological target: T9, LI10 (aa608-909) llama-human c-Met chimera (human; Llama glama, UniProt P08581 25-631); assay: as above
T9 construct: range 1-607 (mature numbering, E=1; derived);range 608-909 (mature numbering, E=1); also called Ll10; not shown: Flag and strep tag
Source text: as §1

[10] = biological target: T10, LS1 (aa1-98) llama-human c-Met chimera (Llama glama; human, UniProt P08581 123-933); assay: as above
T10 construct: range 1-98 (mature numbering, E=1);range 99-909 (mature numbering, E=1; derived); not shown: Flag and strep tag
Source text: as §1

[11] = biological target: T1, Decoy c-Met (extracellular domain of …); assay: binding ELISA, human c-Met (Decoy)
[12] = biological target: T11, recombinant dimeric c-Met (R&D systems, 358-MT/CF) (human, UniProt P08581 25-932); assay: competition ELISA: recombinant dimeric c-Met (100 ng/ml) captured by coated mouse anti-His antibody; antibody dilutions 30 min, then 25 ng/ml N-terminally biotinylated HGF (the competitor); strep-HRP, TMB, 620 nm; percent competition against the controls
T11 construct: Bought product; also called Fc-Met; recombinant c-Met
Description: Competition with N-terminally biotinylated HGF for binding to immobilized c-Met was performed using an ELISA-based competition assay. Five μg/ml mouse anti-His antibodies (Serotech) was immobilized on a maxisorb plate and, after blocking with 1% casein in PBS for 2 h, 100 ng/ml recombinant dimeric c-Met was added and incubated for 1 h at room temperature. After washing, dilutions of the antibodies were added and allowed to bind to the captured c-Met for 30 minutes, before 25 ng/ml N-terminally biotinylated HGF (R&D systems, 294-HGN/CF) was added. Biotinylated HGF was incubated at room temperature for 1 h before washing. Horseradish-conjugated streptavidin (strep-HRP) was added and incubated for an additional hour. TMB was added and the plate read at 620 nm. An isotype control (hIgG1λ) was included as a control as well as murine 5D5 antibody. Competition was expressed as percentage competition as compared to the controls (strep-HRP only or hIgG1λ) and plotted against the concentration of antibodies. An IC₅₀ was calculated using GraphPad Prism (Table 10). Antibodies 13E6 and 20A11 only displaced HGF partially (about 50%), which may be related to the epitope these two mAbs recognize on the c-Met.

[13] = biological target: T12, HMet (human c-Met of Table 16) (human, UniProt P08581 25-932, limits assumed); assay: ELISA, 36C4 (2 µg/ml) immobilised, c-Met construct added, streptavidin-HRP
T12 construct: Label not explained in the text; not shown: Flag and strep tag
Source text: as §1

[14] = biological target: T13, Rhesus (Maccaca mulatta, US20090191580-5) c-Met ECD (Rhesus (Maccaca mulatta)); assay: binding ELISA, Rhesus c-Met ECD immobilised (1 µg/ml)
T13 construct: extracellular domain; also called Rhesus c-Met ECD; Rhesus ECD
Description: Cross reactivity to Rhesus (Maccaca mulatta, US20090191580_{—}5) c-Met ECD and mouse c-Met (R&D systems cat no: 527-ME) was performed in a binding ELISA. Rhesus ECD was immobilized in PBS (1 μg/ml) on a 96-well maxisorb plate and incubated at 4° C. over night. After blocking with 1% casein in PBS, the antibodies in dilutions starting with 10 μg/ml were added and allowed to bind for 1 h at room temperature. The plate was washed and a goat anti-human Fcγ antibody (Jackson) was added and incubated for 1 h at room temperature. After washing, TMB was added and the plate read at 620 nm

[15] = biological target: T14, LS3 (aa1-287) llama-human c-Met chimera (Llama glama; human, UniProt P08581 312-933); assay: ELISA, 48A2 (2 µg/ml) immobilised, chimera added, streptavidin-HRP
T14 construct: range 1-287 (mature numbering, E=1);range 288-909 (mature numbering, E=1; derived); not shown: Flag and strep tag
Source text: as §1

[16] = biological target: T15, LS4 (aa1-348) llama-human c-Met chimera (Llama glama; human, UniProt P08581 373-933); assay: as above
T15 construct: range 1-348 (mature numbering, E=1);range 349-909 (mature numbering, E=1; derived); not shown: Flag and strep tag
Source text: as §1

[17] = biological target: T6, LI8 (aa540-909) llama-human c-Met …; assay: as above
Source text: as §1

[18] = biological target: T16, LS5 (aa1-448) llama-human c-Met chimera (Llama glama; human, UniProt P08581 473-933); assay: as above
T16 construct: range 1-448 (mature numbering, E=1);range 449-909 (mature numbering, E=1; derived); not shown: Flag and strep tag
Source text: as §1

[19] = biological target: T7, LI11 (aa634-909) llama-human c-Met …; assay: as above
Source text: as §1

[20] = biological target: T8, LI9 (aa572-909) llama-human c-Met …; assay: as above
Source text: as §1

[21] = biological target: T9, LI10 (aa608-909) llama-human c-Met …; assay: as above
Source text: as §1

[22] = biological target: T10, LS1 (aa1-98) llama-human c-Met chimera; assay: as above
Source text: as §1

[23] = biological target: T17, LS2 (aa1-199) llama-human c-Met chimera (Llama glama; human, UniProt P08581 224-933); assay: as above
T17 construct: range 1-199 (mature numbering, E=1);range 200-909 (mature numbering, E=1; derived); not shown: Flag and strep tag
Source text: as §1

T9 sequence (P08581 25-631, change not shown): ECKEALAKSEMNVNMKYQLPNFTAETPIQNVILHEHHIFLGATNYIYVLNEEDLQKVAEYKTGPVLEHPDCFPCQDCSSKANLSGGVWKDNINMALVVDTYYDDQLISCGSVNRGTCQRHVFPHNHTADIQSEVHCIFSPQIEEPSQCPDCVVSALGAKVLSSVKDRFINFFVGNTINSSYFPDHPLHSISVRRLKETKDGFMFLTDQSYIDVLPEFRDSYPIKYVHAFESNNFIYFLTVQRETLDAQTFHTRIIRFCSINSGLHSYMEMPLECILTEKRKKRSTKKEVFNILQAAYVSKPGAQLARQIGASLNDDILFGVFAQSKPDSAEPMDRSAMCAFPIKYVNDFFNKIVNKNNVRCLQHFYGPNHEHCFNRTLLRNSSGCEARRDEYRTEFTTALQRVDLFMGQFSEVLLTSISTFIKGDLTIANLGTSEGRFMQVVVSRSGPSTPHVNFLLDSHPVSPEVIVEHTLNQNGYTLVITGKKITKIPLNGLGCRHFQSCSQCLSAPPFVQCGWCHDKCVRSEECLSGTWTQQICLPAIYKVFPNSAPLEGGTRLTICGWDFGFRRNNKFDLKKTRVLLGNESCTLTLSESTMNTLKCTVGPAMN
T6 sequence (P08581 25-563, change not shown): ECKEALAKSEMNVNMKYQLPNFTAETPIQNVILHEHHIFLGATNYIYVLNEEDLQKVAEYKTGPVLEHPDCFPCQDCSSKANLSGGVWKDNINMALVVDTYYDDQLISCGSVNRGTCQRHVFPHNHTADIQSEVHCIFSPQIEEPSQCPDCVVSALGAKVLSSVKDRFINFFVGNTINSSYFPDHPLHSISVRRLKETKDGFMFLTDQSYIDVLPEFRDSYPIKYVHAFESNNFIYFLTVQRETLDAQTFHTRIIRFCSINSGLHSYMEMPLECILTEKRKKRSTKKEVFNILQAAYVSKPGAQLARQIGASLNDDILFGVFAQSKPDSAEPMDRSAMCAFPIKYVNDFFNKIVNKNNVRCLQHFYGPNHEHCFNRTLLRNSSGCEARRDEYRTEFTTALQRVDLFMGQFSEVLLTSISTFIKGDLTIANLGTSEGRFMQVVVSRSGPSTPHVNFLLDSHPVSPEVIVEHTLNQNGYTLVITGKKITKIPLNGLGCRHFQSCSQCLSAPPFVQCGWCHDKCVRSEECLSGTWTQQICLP
T10 sequence (P08581 123-933, change not shown): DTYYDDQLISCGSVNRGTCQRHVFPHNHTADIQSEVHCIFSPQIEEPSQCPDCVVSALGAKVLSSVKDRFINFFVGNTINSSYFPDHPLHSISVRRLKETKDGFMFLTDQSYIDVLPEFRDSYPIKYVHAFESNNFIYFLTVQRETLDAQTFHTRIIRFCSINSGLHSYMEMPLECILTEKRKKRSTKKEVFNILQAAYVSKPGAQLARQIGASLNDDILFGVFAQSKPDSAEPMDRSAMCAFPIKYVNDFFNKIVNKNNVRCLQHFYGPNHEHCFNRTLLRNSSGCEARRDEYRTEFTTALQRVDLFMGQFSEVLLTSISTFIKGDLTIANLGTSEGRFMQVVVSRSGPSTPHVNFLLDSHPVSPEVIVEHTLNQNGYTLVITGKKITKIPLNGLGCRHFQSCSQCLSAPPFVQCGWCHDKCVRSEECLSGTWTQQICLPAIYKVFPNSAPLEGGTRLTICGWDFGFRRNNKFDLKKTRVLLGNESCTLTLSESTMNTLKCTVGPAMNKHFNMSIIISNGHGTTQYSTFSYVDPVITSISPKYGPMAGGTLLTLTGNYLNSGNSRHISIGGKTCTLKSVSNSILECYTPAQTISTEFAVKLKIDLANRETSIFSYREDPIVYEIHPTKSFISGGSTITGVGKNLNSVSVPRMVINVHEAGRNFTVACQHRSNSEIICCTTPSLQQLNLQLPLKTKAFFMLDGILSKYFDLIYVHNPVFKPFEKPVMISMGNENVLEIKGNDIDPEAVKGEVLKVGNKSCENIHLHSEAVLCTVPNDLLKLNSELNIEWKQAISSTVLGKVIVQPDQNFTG
T1 sequence (P08581 25-932): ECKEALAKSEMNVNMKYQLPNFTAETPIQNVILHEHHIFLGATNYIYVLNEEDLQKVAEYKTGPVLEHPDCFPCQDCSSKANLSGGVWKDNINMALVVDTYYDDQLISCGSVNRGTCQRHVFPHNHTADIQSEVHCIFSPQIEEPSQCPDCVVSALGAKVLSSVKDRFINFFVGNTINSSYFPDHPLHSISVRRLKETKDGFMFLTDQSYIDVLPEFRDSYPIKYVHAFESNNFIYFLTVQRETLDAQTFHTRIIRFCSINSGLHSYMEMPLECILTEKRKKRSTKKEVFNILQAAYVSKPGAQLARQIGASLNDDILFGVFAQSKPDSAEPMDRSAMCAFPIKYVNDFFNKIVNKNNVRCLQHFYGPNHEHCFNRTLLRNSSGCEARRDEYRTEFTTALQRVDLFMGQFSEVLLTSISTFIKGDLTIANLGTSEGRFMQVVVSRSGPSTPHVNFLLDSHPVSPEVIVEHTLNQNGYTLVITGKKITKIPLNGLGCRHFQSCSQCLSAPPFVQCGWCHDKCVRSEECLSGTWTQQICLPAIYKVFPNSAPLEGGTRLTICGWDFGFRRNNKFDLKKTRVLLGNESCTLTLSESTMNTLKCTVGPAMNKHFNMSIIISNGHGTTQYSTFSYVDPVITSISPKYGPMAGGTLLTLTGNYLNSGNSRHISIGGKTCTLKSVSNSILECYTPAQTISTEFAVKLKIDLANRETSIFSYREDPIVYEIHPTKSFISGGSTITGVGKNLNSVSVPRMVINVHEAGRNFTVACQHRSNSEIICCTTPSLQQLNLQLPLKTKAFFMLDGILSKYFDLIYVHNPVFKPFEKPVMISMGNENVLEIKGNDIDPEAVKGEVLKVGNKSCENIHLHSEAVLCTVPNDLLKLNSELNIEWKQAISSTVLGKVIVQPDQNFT
T8 sequence (P08581 25-595, change not shown): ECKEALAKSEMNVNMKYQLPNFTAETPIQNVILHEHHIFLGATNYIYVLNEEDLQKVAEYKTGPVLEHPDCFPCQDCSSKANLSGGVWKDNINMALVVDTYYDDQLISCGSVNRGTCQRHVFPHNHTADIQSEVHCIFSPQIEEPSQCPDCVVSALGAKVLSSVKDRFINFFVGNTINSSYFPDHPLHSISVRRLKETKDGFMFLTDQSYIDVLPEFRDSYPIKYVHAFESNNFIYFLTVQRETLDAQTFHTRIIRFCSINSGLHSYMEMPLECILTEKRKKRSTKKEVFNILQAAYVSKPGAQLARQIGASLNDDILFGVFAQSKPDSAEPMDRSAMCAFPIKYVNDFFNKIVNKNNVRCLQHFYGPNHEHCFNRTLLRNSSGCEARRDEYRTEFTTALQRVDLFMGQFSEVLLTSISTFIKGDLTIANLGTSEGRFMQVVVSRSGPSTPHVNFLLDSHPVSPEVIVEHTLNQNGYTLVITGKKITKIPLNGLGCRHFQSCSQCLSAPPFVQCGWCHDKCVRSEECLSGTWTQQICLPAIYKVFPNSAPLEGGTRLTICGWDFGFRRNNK
T7 sequence (P08581 25-657, change not shown): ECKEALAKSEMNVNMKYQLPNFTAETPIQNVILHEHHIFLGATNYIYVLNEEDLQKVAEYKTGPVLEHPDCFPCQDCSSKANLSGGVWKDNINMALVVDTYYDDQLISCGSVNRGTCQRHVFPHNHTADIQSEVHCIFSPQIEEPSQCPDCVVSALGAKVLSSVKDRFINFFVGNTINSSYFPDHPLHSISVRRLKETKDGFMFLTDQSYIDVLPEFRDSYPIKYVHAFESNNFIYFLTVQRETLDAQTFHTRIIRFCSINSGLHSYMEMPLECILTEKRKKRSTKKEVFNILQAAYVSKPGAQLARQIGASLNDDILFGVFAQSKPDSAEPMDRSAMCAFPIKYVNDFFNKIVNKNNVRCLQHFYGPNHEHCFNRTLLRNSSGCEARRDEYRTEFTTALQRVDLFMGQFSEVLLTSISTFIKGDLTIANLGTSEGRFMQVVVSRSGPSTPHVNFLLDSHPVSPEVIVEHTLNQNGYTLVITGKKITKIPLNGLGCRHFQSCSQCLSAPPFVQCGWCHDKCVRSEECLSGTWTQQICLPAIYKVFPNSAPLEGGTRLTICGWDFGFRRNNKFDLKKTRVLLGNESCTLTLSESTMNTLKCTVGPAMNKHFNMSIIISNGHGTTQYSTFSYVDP
T4 sequence (P08581 25-546, change not shown): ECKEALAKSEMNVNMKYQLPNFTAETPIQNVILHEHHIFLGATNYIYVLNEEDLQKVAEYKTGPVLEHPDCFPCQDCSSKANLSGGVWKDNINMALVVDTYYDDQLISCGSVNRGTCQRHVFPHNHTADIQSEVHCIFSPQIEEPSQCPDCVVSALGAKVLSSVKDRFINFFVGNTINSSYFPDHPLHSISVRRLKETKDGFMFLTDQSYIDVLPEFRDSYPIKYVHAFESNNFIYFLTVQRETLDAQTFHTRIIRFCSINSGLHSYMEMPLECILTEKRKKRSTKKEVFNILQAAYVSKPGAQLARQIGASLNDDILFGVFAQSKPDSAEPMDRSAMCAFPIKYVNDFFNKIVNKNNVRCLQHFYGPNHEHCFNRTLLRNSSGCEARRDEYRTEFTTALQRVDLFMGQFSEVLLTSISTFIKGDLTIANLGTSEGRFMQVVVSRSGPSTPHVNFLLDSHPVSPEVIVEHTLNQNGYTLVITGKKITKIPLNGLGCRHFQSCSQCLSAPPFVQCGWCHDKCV
T2 sequence (P08581 25-932 limits assumed): as the sequence (P08581 25-932) above
T12 sequence (P08581 25-932 limits assumed): as the sequence (P08581 25-932) above
T11 sequence (P08581 25-932 limits assumed): as the sequence (P08581 25-932) above

EC50 (read off the curve) [1]: ~0.02 µg/mL | EC50 (read off the curve) [2]: ~0.6 nM | EC50 (read off the curve) [3]: ~0.6 nM | EC50 [4]: 0.055 µg/mL | EC50 [5]: 0.05 µg/mL | EC50 [6]: 0.047 µg/mL | EC50 [7]: 0.045 µg/mL | EC50 [8]: 0.047 µg/mL | EC50 [9]: 0.047 µg/mL | EC50 [10]: 0.068 µg/mL | EC50 [11]: 0.13 nM | IC50 (read off the curve) [12]: ~0.2 nM | EC50 [13]: 0.06 µg/mL | EC50 [14]: 0.14 nM
B1: 36C4 mAb (antibody, V domains shown)
VH: QVQLVESGPGLVKPSQTLSLTCAVSGGSITTNYYYWSWIRQSPGKGLEWMGVIAYDGSTDYSPSLKSRTSISRDTSKNQFSLQLSSVTPEDTAVYYCARDVRVIATGWATANALDAWGQGTLVTVSS
VL: QSVLTQPPSVSGSPGKTVTISCAGTSSDVGYGNYVSWYQQLPGTAPKLLIFAVSYRASGIPDRFSGSKSGNTAFLTISGLQSEDEADYYCASYRSSNNAAVFGGGTHLTVL
notes: also called SIMPLE antibody 36C4

EC50 [15]: 0.05 µg/mL | EC50 [16]: 0.07 µg/mL | EC50 [17]: > 0.04 µg/mL | EC50 [18]: 0.05 µg/mL | EC50 [19]: 0.042 µg/mL | EC50 [20]: > 0.04 µg/mL | EC50 [21]: > 0.04 µg/mL | EC50 [22]: 0.031 µg/mL | EC50 [23]: 0.034 µg/mL
B2: 48A2 mAb (antibody, V domains shown)
VH: EVQLVQPGVELRNPGASVKVSCKASGYIFTMNSIDWVRQAPGQGLEWMGRIDPEDGGTKYAQKFQGRVTFTADTSTSTAYVELNSLRSEDTAVYYCARVDDYYLGYDYWGQGTQVTVSS
VL: DIVMTQTPTSVTASAGDKVTINCKSSQSVLFSSNQKNYLAWYQQRLGQSPRLLIYWASIRESGVPDRFSGSGSATDFTLTISNFQPEDAAVYYCQQGYSFPYSFGSGTRLEIR
